Reference: publication PMC11043418, “Bacillus velezensis iturins inhibit the hemolytic activity of Staphylococcus aureus” (Scientific Reports, 2024)

Target: the molecule itself
Assay: SDS-PAGE of deoxycholate-induced oligomers

B1: alpha-hemolysin (natural protein)
chain: ADSDINIKTGTTDIGSNTTVKTGDLVTYDKENGMHKKVFYSFIDDKNHNKKLLVIRTKGTIAGQYRVYSEEGANKSGLAWPSAFKVQLQLPDNEVAQISDYYPRNSIDTKEYMSTLTYGFNGNVTGDDTGKIGGLIGANVSIGHTLKYVQPDFKTILESPTDKKVGWKVIFNNMVNQNWGPYDRDSWNPVYGNQLFMKTRNGSMKAADNFLDPNKASSLLSSGFSPDFATVITMDRKASKQQTNIDVIYERVRDDYQLHWTSTNWKGTNTKDKWTDRSSERYKIDWEKEEMTN
notes: also called α-hemolysin; Hla
B1 was tested. Which “stoichiometry N” value did it give?
The value was 7.
